The results in this text go back to patent US20180194862A1 (AbbVie / Abbott, published 2018).

Assay [1] has as its target T1, mouse 4-1BB (mouse, UniProt P20334 24-187).
T1 construct: also called mu4-1BB; murine 4-1BB
T1 sequence (looked up): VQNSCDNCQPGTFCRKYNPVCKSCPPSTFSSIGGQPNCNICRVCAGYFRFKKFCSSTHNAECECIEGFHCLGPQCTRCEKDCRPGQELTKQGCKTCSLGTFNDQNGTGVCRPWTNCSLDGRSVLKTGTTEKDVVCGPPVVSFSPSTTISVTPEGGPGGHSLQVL
Description: SPR (Biacore). A general note: Surface plasmon resonance follows binding to a sensor surface in real time, without labels.

The target in assay [2] is T1, mouse 4-1BB. The assay can be described thus: SPR.
The target of another assay is T2, human 4-1BB (human, UniProt Q07011 24-186).
T2 construct: SPR (Biacore) analyte; also called hu4-1BB
The assay can be described thus: SPR.

The next assay concerns the target T3, cynomolgus 4-1BB (cynomolgus, UniProt A9YYE7 24-186).
T3 sequence: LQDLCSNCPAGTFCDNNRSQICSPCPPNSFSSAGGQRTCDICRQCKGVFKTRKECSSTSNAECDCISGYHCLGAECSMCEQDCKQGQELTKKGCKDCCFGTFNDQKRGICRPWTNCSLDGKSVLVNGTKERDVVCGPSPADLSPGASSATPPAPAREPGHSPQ
Description: SPR.

For assay [3], the target named is human CD40 on cells (HEK293 stable transfectants, HEK-Blue CD40 cells, human B cells, monocytic cells, … (human, UniProt P25942 21-277)). Description: cell-based or functional assay.
Sequence of human CD40 on cells (HEK293 stable transfectants, HEK-Blue CD40 cells, human B cells, monocytic cells, … (P25942 21-277 limits assumed): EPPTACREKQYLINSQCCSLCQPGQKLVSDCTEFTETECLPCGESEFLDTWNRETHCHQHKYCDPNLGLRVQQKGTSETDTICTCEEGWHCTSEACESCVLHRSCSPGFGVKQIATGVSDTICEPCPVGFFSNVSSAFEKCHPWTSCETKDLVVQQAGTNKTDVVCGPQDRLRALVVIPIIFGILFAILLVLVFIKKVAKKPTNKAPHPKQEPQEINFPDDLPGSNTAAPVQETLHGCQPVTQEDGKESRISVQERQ
The next assay addresses T4, dog CD40 (dog, UniProt Q7YRL5 21-194, limits assumed).
T4 sequence (looked up): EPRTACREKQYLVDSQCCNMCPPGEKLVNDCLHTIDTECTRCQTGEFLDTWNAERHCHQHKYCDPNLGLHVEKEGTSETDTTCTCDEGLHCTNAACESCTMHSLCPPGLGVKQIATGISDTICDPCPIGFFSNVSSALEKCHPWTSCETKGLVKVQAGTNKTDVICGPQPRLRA
The assay can be described thus: FACS. In general terms: A flow cytometer gives signals particle by particle.

For a further assay, the target named is T5, mouse CD40 (mouse, UniProt P27512 20-193, limits assumed).
T5 construct: also called murine CD40
T5 sequence (looked up): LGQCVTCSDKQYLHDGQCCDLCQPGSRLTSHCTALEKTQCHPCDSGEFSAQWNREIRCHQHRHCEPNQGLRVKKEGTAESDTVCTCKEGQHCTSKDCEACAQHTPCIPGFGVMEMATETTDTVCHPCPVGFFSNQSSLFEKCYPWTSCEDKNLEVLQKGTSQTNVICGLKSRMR
Description: FACS.

For orientation: Kd means a measure of binding affinity in units of concentration. The term koff denotes the first-order rate constant of dissociation. The low end stands for slow dissociation, the high end for fast dissociation. A word on the kon: it is a measure of how fast the partners come together. A higher kon goes with fast association.

B1: TABBY108-rIgG1 (antibody, V domains shown)
VH: EIQLQESGPGLVRPSQSLSLACSVTGYTITSAYDWSWIRKFPGNKMEWMGYIAYIGFTNSNPSLKSRISITRDTSKNQFFLQLKSVTTEDTATYYCARWSSYIPRYFDFWGPGTMVTVSS
VL: QAVLTQPNSVSTSLGSTVKLSCTITSGNIEDNFVHWYQHYEGRSPTTMIHNDDKRPDGVPDRFSGSIDSSSNSAFLTINNVEIEDEAIYFCHSYVSSINIFGGGTKLTVL
notes: rat IgG1
On to B1, for which the affinity with mouse 4-1BB [1], expressed as Kd, was 0.36 nM.

B2: TABBY105-rIgG2a (antibody, V domains shown)
VH: EVQLVESGGGLVQPGRSMKLSCAASGFTFNNYDMAWVCQAPKRGLEWVATISYDGSTTYYRDSVKGRFTFSRDNAKSTLYLQMDSLRSEDTATYYCARVGAGDFDYWGQGVMVTVSS
VL: DIRMTQSPVSLSTSLGETVNIECLASEDIYSDLAWYQQKPGKSPQLLIYSTNTLQNGVPSRFSGSGSGTQYSLKINSLQSEDVATYFCQQNNNYPYTFGAGTKLELK
notes: rat IgG2a, kappa
Regarding B2, the dissociation constant (Kd) with mouse 4-1BB [1] was 15 nM.

B3: TABBY102-rIgG1 (antibody, V domains shown)
VH: QVQLQQSGAELAKPGSSVKISCKASGYTLTSYYLNWIKQTTGQGLEYIGYIDTGSGGSHYNEKFKGKATLTVDKSSSTAFMQLSSLTPVDSAVYYCARGGYYDGFFDYWGQGVMVTVSS
VL: DIQMTQSPASLSASLGETVSIECLASEGISNDLAWYQQKSGKSPQFLIYAASRLQDGVPSRFSGSGSGTRYSLKISGMQPEDEADYFCQQSYKYPPTFGSGTKLEIK
notes: rat IgG1, kappa
With B3, in the assay with mouse 4-1BB [1], the affinity, expressed as Kd, was 0.84 nM.

B4: TABBY103-rIgG1 (antibody, V domains shown)
VH: QVQLQQSGAELVKPGSSVKISCKASDYTFTSNFLHWIKQQPGNGLEWIGWINPGDGDTYYNQKFNGKATLTADKSSTTAYMQLSSLTSEDSAVYFCAGGNYYAAHYPPGPWYFDFWGPGTMVTVSS
VL: DTVLTQSPALAVSLGQRVTISCRASKSVSIYMHWYQQKSGQQPKFLIYTASNLESGVPSRFSGSGSGTDFTLTIDPVEADDIANYYCQQSNELPFTFGSGTKLEIK
notes: rat IgG1, kappa
The molecule B4 showed a Kd with mouse 4-1BB [1] of 0.17 nM.

B5: TABBY104-rIgG1 (antibody, V domains shown)
VH: QVTLKESGPGILQPSQTLSLTCTFSGFSLSTDGLGVTWIRQPSGKGLEWLANIWWDDDKDYNPSLKNRLTISKDTSNPQAFLKITNVDTADTATYYCARIVPNSGHEDYWGQGVMVIVSS
VL: DIQMTQSPSFLSASVGDRVTINCKASQNINRYLNWYQQKLGEAPKLLMYNTNSMQTGIPSRFSGSGSGTDFTLTISSLQPEDVATYFCLQHNSWPRTFGGGTKLELK
notes: rat IgG1, kappa
Take B5: in the assay with mouse 4-1BB [1], the Kd came out at 0.14 nM.

B6: TABBY106-rIgG1 (antibody, V domains shown)
VH: QVQLQQSGAELAKPGTSVKLSCKASGYTFTSYYIYWVKQRPGQGLEWIGNIWPGNGGTFYGEKFMGKATFTADTSSSTAYMLLGSLTPEDSAYYFCARRPDYSGDDYFDYWGQGVLVTVSS
VL: QVVLTQPKSVSTSLKSTVKLSCKLNSGNIGSYYVHWYQQHAGRSPTTMIYRDDKRPDGVPDRFSGSIDSSSNSAFLTINNVQTEDDAIYFCHSYDSTITPVFGGGTKLTVL
notes: rat IgG1, lambda
With B6, the Kd with mouse 4-1BB [2] was determined as 1.6 nM; with human 4-1BB it was 12 nM; with mouse 4-1BB [1], 1.6 nM; with cynomolgus 4-1BB, 18 nM. The koff in the assay with mouse 4-1BB [2] came to 0.013 s⁻¹; in the assay with human 4-1BB it was 0.026 s⁻¹; with cynomolgus 4-1BB it was 0.022 s⁻¹. In addition, the kon in the assay with mouse 4-1BB [2] worked out at 8.1e+06 M⁻¹ s⁻¹; with human 4-1BB it was 2.2e+06 M⁻¹ s⁻¹; with cynomolgus 4-1BB, 1.2e+06 M⁻¹ s⁻¹.

B7: huAb9-2 (antibody, human IgG1, V domains shown)
VH: EVQLQESGPGLVKPSETLSLTCTVSGYSITSNYYWNWIRQPPGKGLEWMGYIRYDGSNNYNPSLKNRVTISRDTSKNQFSLKLSSVTAADTAVYYCARLDYWGQGTTVTVSS
VL: DAVMTQTPLSLSVTPGQPASISCRSSQSLENTNGNTFLNWFLQKPGQSPQLLIYRVSNRFSGVPDRFSGSGSGTDFTLKISRVEAEDVGVYFCLQVTHVPFTFGQGTKLEIK
notes: human IgG1, kappa
On to B7, for which the “Maximal activation (OD655)” value in assay [3] stood at 0.27 OD655. Also, in assay [3], the “NF-κB activation EC50, HEK293 CD40 NFκB reporter cells” value (shortened to “NF-κB activation EC50”) was 0.29 µg/mL. Besides, the binding result with dog CD40 and with mouse CD40 was “no binding” throughout.

B8: huAb9-1 (antibody, human IgG1, V domains shown)
VH: EVQLQESGPGLVKPSETLSLTCTVSGYSITSNYYWNWIRQPPGKGLEWMGYIRYDGSNNYNPSLKNRITISRDTSKNQFSLKLSSVTAADTAVYYCARLDYWGQGTTVTVSS
VL: DAVMTQTPLSLSVTPGQPASISCRSSQSLENTNGNTFLNWFLQKPGQSPQLLIYRVSNRFSGVPDRFSGSGSGTDFTLKISRVEAEDVGVYFCLQVTHVPFTFGQGTKLEIK
notes: human IgG1, kappa
Consider B8, for which, in assay [3], the “Maximal activation (OD655)” value was determined as 0.26 OD655 and the “NF-κB activation EC50” value was found to be 0.19 µg/mL. Also, the binding result in the assay with dog CD40 is recorded as “no binding”. Besides, the binding result in the assay with mouse CD40 was “no binding”.

B9: huAb9-3 (antibody, human IgG1, V domains shown)
VH: EVQLQESGPGLVKPSETLSLTCTVSGYSISSNYYWNWIRQPPGKGLEWMGYIRYDGSNNYNPSLKSRVTISRDTSKNQFSLKLSSVTAADTAVYYCARLDYWGQGTTVTVSS
VL: DAVMTQTPLSLSVTPGQPASISCRSSQSLENTNGNTFLNWFLQKPGQSPQLLIYRVSNRFSGVPDRFSGSGSGTDFTLKISRVEAEDVGVYFCLQVTHVPFTFGQGTKLEIK
notes: human IgG1, kappa
On to B9, for which, in assay [3], the “Maximal activation (OD655)” value came to 0.27 OD655 and the “NF-κB activation EC50” value is 0.18 µg/mL. In addition, in the assay with dog CD40, the binding result is recorded as “no binding”. Also, the binding result in the assay with mouse CD40 is given as “no binding”.

B10: huAb9-6 (antibody, human IgG1, V domains shown)
VH: EVQLQESGPGLVKPSETLSLTCTVSGYSISSNYYWNWIRQPPGKGLEWMGYIRYDGSNNYNPSLKSRVTISRDTSKNQFSLKLSSVTAADTAVYYCARLDYWGQGTTVTVSS
VL: DAVMTQTPLSLSVTPGQPASISCRSSQSLENTNGNTFLNWYLQKPGQSPQLLIYRVSNRFSGVPDRFSGSGSGTDFTLKISRVEAEDVGVYYCLQVTHVPFTFGQGTKLEIK
notes: human IgG1, kappa
B10: in assay [3], the “Maximal activation (OD655)” value was 0.54 OD655 and the “NF-κB activation EC50” value was 5.95 µg/mL. The binding result with dog CD40 is reported as “no binding”. The binding result with mouse CD40 is given as “no binding”.

B11: huAb9-4 (antibody, human IgG1, V domains shown)
VH: EVQLQESGPGLVKPSETLSLTCTVSGYSITSNYYWNWIRQPPGKGLEWMGYIRYDGSNNYNPSLKNRITISRDTSKNQFSLKLSSVTAADTAVYYCARLDYWGQGTTVTVSS
VL: DAVMTQTPLSLSVTPGQPASISCRSSQSLENTNGNTFLNWYLQKPGQSPQLLIYRVSNRFSGVPDRFSGSGSGTDFTLKISRVEAEDVGVYYCLQVTHVPFTFGQGTKLEIK
notes: human IgG1, kappa
With B11, the “Maximal activation (OD655)” value in assay [3] was determined as 0.61 OD655. Besides, in assay [3], the “NF-κB activation EC50” value stood at 5.55 µg/mL. For the same molecule, the binding result in the assay with dog CD40 and with mouse CD40 was “no binding” each time.

B12: TABBY107-rIgG1 (antibody, V domains shown)
VH: QVKLVQSGAALVKPGASVKMSCKASDYTFNDYWVSWVKQRHGESLEWIGEIYPNSGATNFNGKFRGKATLTVDNPTSTAYMELSRLTSEDSAIYYCTREYTRDWFAYWGQGTLVTVSS
VL: DVVLTQTPSILSATIGQSVSISCRSSQSLLDSDGNTYLYWFLQRPGQSPQRLIYLVSNLGSGVPNRFSGSGSGTDFTLKISGVEAEDLGIYYCMQPTHAPYTFGAGTKLELK
notes: rat IgG1, kappa
Regarding B12, the Kd with mouse 4-1BB [2] is 6.7 nM; with human 4-1BB, 0.32 nM; with mouse 4-1BB [1], 6.7 nM; in the assay with cynomolgus 4-1BB it was 0.36 nM. In addition, the koff with mouse 4-1BB [2] stood at 0.0016 s⁻¹; in the assay with human 4-1BB, 0.00014 s⁻¹; in the assay with cynomolgus 4-1BB, 0.00013 s⁻¹. The kon with mouse 4-1BB [2] was found to be 240000 M⁻¹ s⁻¹; with human 4-1BB, 450000 M⁻¹ s⁻¹; in the assay with cynomolgus 4-1BB it was 350000 M⁻¹ s⁻¹.

B13: TABBY101-rIgG1 (antibody, V domains shown)
VH: QIQLVQSGPELKKPGESVKISCKASGYTFTDFAIHWVKQAPGKGLKWMGWINTYTGKPTYADDFKGRFVFSLEASASTANLQISNLKNEDTATYFCSRGAPRPTNWGQGTLVTVSS
VL: DIQMTQSPASLSASLGETVSIECLASEDIYNNLAWYQQKPGKSPQLLIYYESRLQDGVPTRFSGSGSGTQYSLKINSLESEDAATYFCLQDSEYPYTFGAGTKLELK
notes: rat IgG1, kappa
Molecule B13 yielded a Kd in the assay with mouse 4-1BB [1] of 0.82 nM.
